Source: doi:10.1101/2025.06.24.661301
Like-named read-outs stand apart in the source and are kept apart here.

Key:
Arp2/3 complex (human) [1] = target: Arp2/3 complex (human) (UniProt P61158); assay: SPR
Arp2/3 complex (human) [2] = target: Arp2/3 complex (human) (UniProt P61158); assay: SPR; remark: listed apart in the source

Substance | Kd (Arp2/3 complex (human) [1]) [µM] | Kd (Arp2/3 complex (human) [2]) [µM]
Arpin CT peptide (residues 192-226) (from UniProt Q7Z6K5-1 192-226) | 17.8 | –
GST-aCT (chimeric protein with Arpin's CT fused to the C-terminus of glutathione S-transferase through the spacer -GSSG-) | 2.5 | –
full-length Arpin (SEC fractions used in SPR) (from UniProt Q7Z6K5-1 1-226) (natural protein) | 14.1 | 48.9
human Arpin with the double-site alanine substitution F95A/M97A (from UniProt Q7Z6K5-1 1-226) (natural protein) | 63.1 | –
